# Measured values published in a protein production outcome set (Wang et al. 2014).
# Assay: label from the status in PepcDB records
row,Sequence,protein production
1,MADHSIQGKVALIAGGAKNLGGLIARDLAAHGARAIAIHYNSPASKADADATVAALQAAGAQAVALQGDLTTAAAVEKLYADALAAVGRPDIAINTVGKVLKKPFSEISEAEYDEMAAVNAKSAFFFLKEAGRHVNDHGKIVTLVTSLLGAFTPFYSAYAGTKAPVEHYTRAAAKEFGARGISVTAVGPGPMDTPFFYGQESPEAVAYHQSAAALSPHSPTGLTHIEDVVPFIRHLVSDGWWITGQTLLINGGYTTK,not failed
2,MADIKRIALLSGGGDCPGLNAVIRAVTKAAINEYGYEVIGYVYGYRGLYNNDYIELTVDKVENIYKEGGTILYSSNKDNLFDYLVDDGHGGKVKKDVSDVGVENLKKAGVDVLVVLGGDGTLTSARDFARKGVNVIGIPKTMDNDLPATDLTYGFISASSVGTEFIDRLNTTAKSHHRVICCELMGRDAGWIALYAGMAGNASCILIPEIPFTIDSIVRHVEKRDKEGYPYTVIAVAEGAKYADGTKVIGKIVEDSPDPIRLGGIASKVADDLEKVIKNHEVRSVNPGHIIRGGDIQAYDRILSIRFGVKAVELIHEGKFGNVVTLKGEEMSYTSLEEVIGDAKFGKQKHVDPNGELVRAAKSIGICFGDD,failed
3,MADKIKVSLLGSTGMVGQKMVKMLAKHPYLELVKVSASPSKIGKKYKDAVKWIEQGDIPEEVQDLPIVSTNYEDHKDVDVVLSALPNELAESIELELVKNGKIVVSNASPFRMDPDVPLINPEINWEHLELLKFQKERKGWKGILVKNPNCTAAIMSMPIKPLIEIATKSKIIITTLQAVSGAGYNGISFMAIEGNIIPYIKGEEDKIAKELTKLNGKLENNQIIPANLDSTVTSIRVPTRVGHMGVINIVTNERINIEEIKKTLKNFKSLPQQKNLPTAPKQPIIVRDEEDRPQPIIDVNAESGMAVTVGRIRHENNVLRLVVLGDNLVRGAAGITILTVEVMKELGYI,not failed
4,MADLALLVLTLLWGTTFALVKEALEIASPGVFLTARFGLAAVALLAAWALRPRAPLGDGFWRHGILLGLTMLVGFVLQTVALRHTTPARSGFITGLNVLVVPVVARWFLGRRVRPAFWVGVAFALAGLVMLTRPFTPGAVTEEVRFGDLLTLFCAVAYGLQVTFTSEWAPRHPLAPFVAVQVLVTLAGALVLAPLEGPRFDPAGAGHFALVVAFTGLVMTALAFFVMNWGQRHTTAVRAALIFSLEPAAAAVFSWLYYGEPLGPLDWAGGALMVLGVVAGEVGGVLEARAPRRARGERASTGPG,failed
5,MADLRLEREFAVAPEALFAWVSDGAKLLQWWGPEGLHVPADQHDLDFTRLGPWFSVMVNGEGQRYKVSGQVTHVKPPQSVGFTWGWHDDDDRRGAESHVMFIVEPCAKGARLILDHRELGDDEMSLRHEEGWTSSLRKLAAELALEHHHHHH,not failed
6,MADNGQADRKERSNGVIVGTCLAFVAGMIGMAYAAVPLYDMFCRVTGYNGTTQRVEQASDLILDEKIKVTFDANVAAGLPWEFVPVQRDIDVRIGETVQIMYRAKNLASTPTTGQATFNVTPMAAGAYFNKVQCFCFTETTLEPGEEMEMPVVFFVDPEIVKPVETQGIKTLTLSYTFYPREPSKPVAQVKAKAENKL,not failed
7,MADNTLHSSARANWLERRFALRSRGGTLRTECLAGITGFLAAAYLLVVIPGLLAIGGMDKGAATTGTILVFVVGSLLMAFYANLPFIVGPGIGGSVLVGVTLAGSEGIGWQTGLGIACWSGILFFLLTRFGLREVVTRSVPQSIKLGLTASIGLFVAVLGFRNAGLVLANAKTNALMLGDFLAPGALVALCGLFLAIALQARKVPGAILWAILCATLVGIPFGVTKLPTHFIDAPHSLAPVLGQVDLLGALNIAFLPFLFVFFASEFFSTMGTTLAVGGEAGLLDEEGNMPQINRPFMVDSIAAALGPWLGIPAATALIESSAAAEAGGKTGLTALSAAVMFLLMLLFTPVALMIPKEATAPALILIGLNMFSGLRKVDLANFTDGLPVLMMVMITLIANSFGTGIAGGLLFYIVIKAIAGKWREIPIGLWVLAVPLVYYFATLVRH,failed
8,MADPKELQDKFWKALKSDRTVMLGLDGVEDGHARPMTAQIEGDSGGPIWFFTSKDNALIAMLGQGRRVIGAFSSKGHDLFASISGSLREDTDPAVVDRLWNPYVAAWYEGGKDDPKLALLRLDADHAQIWLNGSSLLAGIKVLLGV,not failed
9,MADQLYLENIDEFVTDQNKIVTYKWLSYTLGVHVNQAKQMLYDYVERKRKENSGAQLHVTYLVSGSLIQNGHSCHKVAVVREDKLEAVKSKLAVTASIHVYSIQKAMLKDSGPLFNTDYDILKSNLQNCSKFSAIQC,failed
10,MADSAELKQMVMSLRVSELQVLLGYAGRNKHGRKHELLTKALHLLKAGCSPAVQMKIKELYRRRF,not failed
11,MADSKEKLFSDFPAVSTEQWMEKITADLKGADFEKKLVWRTNEGFKVKPFYRQEDLEGLKTTEGLPGEFPYVRGTKKNDNTWFVRQEIKVECPKEANAKALDILNKGVDSLGFYVKKKDLSPEYIETLLNDICAECIELNFSTCQGHTVELAKLLVAYFQKKGYDLTKLQGSVNYDPMGKMMVKGKDLSNFITTAKELVEVLAPLPKFRCICVNAIELNNAGSYISQELGYALAWGNEYLSKLVEAGVPAALAAKKIKFNFGISSNYFLEIAKFRAARMLWADIVKEYHPQCNRQPECPNKAEDGTCLCACKMVAHAETSTFNLTLFDAHVNLLRTQTEAMSAALAGVNSITVTPFDKTYETPDDFSERIARNQQLLLKEECHFNKVVDPAAGSYFIENLTISIATQAWELFLKVEDEGGMLEAVKAGKVQEAINASNKARHDSVSKRKEILLGTNQYPNFNEKAGEKAPVEAKCCCGGNHDSCEKPFATLNFDRAASQFEALRLQTEKSGKRPKAFMLTIGNLAMRQARAQFSCNFLACAGYEVIDNLGFPTVEAGVEAAMKAGADIVVICSSDDEYAEYAIPAFKALDGRAIFIVAGAPACMEELKAAGIENFIHVRVNVLDTLKEYNAKLGIK,failed
12,MADTGDTAGAKKNGDSTFTVLVAAFANLGIAVAKAVAGVISGSSAMLSEAAHSVADTVTEVLLLTSLKRSVRPADEDHPLGHGPERYIWALLAAVATFVGGAVFSLYDGIHTLTHGEDLGDPLVSYIVLAVAFVLEGYSLRTGLRQVRGEAAHHRVSFGRYLRRTPDTAVKAVVMEDSAALAGLLLAAGGLLGGQLTGSGVWDAVASLCIGALLLYVAWVLGRSNAEFLVGRPLSRSVRDRIRAELVADEHIEAVLELTTLVQGPREALVAAKVDFRDVSTAAQIEWACERAEQRLREEFPIVRRVYLDPTPGFAQRRTEGLNPWP,failed
13,MADTNYIRDLSLHRNNHVLYVKILSIWDNQSMIFGTPTTMILYDVKGTRIDTRVPWGDYLNNFKPSLFEGKWYYIADFRLKRATSIPKYSSFNYEIEFMWHTKMWPVSDRSDESSLQFIHADEIESESEDYVTDAIGVISSVSTEARFPYVCREGETDYEARYVTFTIRDNLDRIITCVARGSACESFLTKFYRLIGMKTYNYEPITTVLRFFRASNFKGSKALISEHGCSRIFIEESFPDFDVTVYINWFACEDDGSVEGKIEYFVEN,failed
14,MADWLIGIIMGAVEGLTEFLPVSSTGHMILTGHLLGFDDERAKVFEVVIQLGSILAVVVIFWKRLWSLVGIGKVTDGPSLNLLHIIIGMIPAGVLGVLFHSAIKEVLFGPGPVVISLVAGGILMIVAEKFSKPSTARTLDEITYKQAFTIGMFQCLALWPGFSRSGSTISGGLLARVSHTAAAEYTFILAVPMMVAASGLDLIKSWDILSAADIPLFATGFITAFVVAMLAIVSFLKLLSRVKLTPFAYYRFILAAVFYFFIM,failed
15,MADWVTGKVTKVQNWTDALFSLTVHAPINPFTAGQFTKLGLEIDGERVQRAYSYVNAPDNPNLEFYLVTVPQGKLSPRLAALKPGDEVQVVSDASGFFVLDEVPDCETLWMLATGTAIGPYLSILQYGQDVARFKNLVLVHAARFAADLSYLPLMLELQQRYEGKLRIQTVVSRENVPGSLTGRVPALIENGELEKAVGLPMDKETSHVMLCGNPQMVRDTQQLLKETRQMTKHLRRRPGHMTAEHYW,not failed
16,MAEASATEPERPDQESADDAVIATRALTKRYRGGQLAVDGLDLTVPAGSVFGFLGPNGSGKTTTIRMLMGLIEPTSGSARVLGRPMPRAARAVLPRVGALIEGPALYGFLSGRDNLLRYDAADPTADPRTRRERVAAALDRVGLAAAGGKKAKAYSLGMKQRLGLAAALLQPRRLLVLDEPTNGLDPQGMREIRSLVRELASDGTTVFLSSHLLDEIEQVCTHAAVMAQGRLITQGAVADLAAGARGRLVVTTPDAGDAARVLKEQGAADVVVDGDRVTAEPPERDLAEVNAALVAARVRVRGFVVERASLEDAFVALTGEGFDVAG,failed
17,MAEAVLENVNVPAVVSKDECIYCFESPYNEPLALNASPKHSLNICLNCFQATCNRHVPLHIRVTEYACDTIHSNYLTIAKVEKPKQENVEENNNNKKIKLQVIETSEDDTHNTIWSLQRFNGENVPRTVLSKSTDSDISSTALEKIEKILKAKSQDFEDKKNSWVLEISTCPHTENFQIPSKPENTVNLNQCSSCDLTQNLWLCLHCGNIGCGREQIGIDGHSHALDHYRSNNNHPLAIKLGSLSSSTYDLYCYACDDETRFPDNVNLGSALQIYGINIQEKIADEKTLVQLQVEQNENWQFRMVDSSGKEFEKLSASKNYGCGLINLGNSCYLNSVIQSLVNGGVPNWSLDFLGSKFPLDVVYPDNNLKCQWIKLLNAMKCEPELYPNGIKPTTFKKCIGQNHQEFSSNRQQDAMEFLTFLLDLLDKKFFSSSSSGIPNPNDLVRFMMEDRLQCNICGKVKYSYEPTEAIQIPLEENDEPQDMLERIKAYFEGQTIEFKCANCKEKVTANKKPGFKSLPQTLILNPIRIRLQNWIPVKTSNELSLPGLIDRDDMLDVSSYLSQGFDPQTENLLPDEDENRSSFTPNQCSISQLIEMGFTQNASVRALFNTGNQDAESAMNWLFQHMDDPDLNDPFVPPPNVPKKDKREVDEVSLTSMLSMGLNPNLCRKALILNNGDVNRSVEWVFNNMDDDGTFPEPEVPNEEQQQKKDLGYSTAKPYALTAVICHKGNSVHSGHYVVFIRKLVADKWKWVLYNDEKLVAADSIEDMKKNGYIYFYTRC,failed
18,MAEEQAATAMETSAVEKQPETTTEAEAPSLTTKRMVVAIDESDSSFYALQWVIDHFSNLLLTTAAAEAESGMLTVIHVQSPFNHFAAFPAGPGGATAVYASSSMIESVKKAQQETSAALLSRALQMCRAKQIRTETLVLEGEAKEMICEAVEKMHVDLLVVGSRGLGKIKRAFLGSVSDYCAHHANCPILIVKPPKEMTK,failed
19,MAEERSLNGEATGQDDESFFDSDQQGDDGKSTELNQKIGDLESQNQELARDNDAINRKIESLTAEIEELRGAESKAKRKMGEMEREIDKSDEERKVLEAIASRASELETEVARLQHELITARTEGEEATAEAEKLRSEISQKGGGIEELEKEVAGLRTVKEENEKRMKELESKLGALEVKELDEKNKKFRAEEEMREKIDNKEKEVHDLKEKIKSLESDVAKGKTELQKWITEKMVVEDSLKDSEKKVVALESEIVELQKQLDDAEKMINGLKNVVEEPLNGIEFKSWSPNVTAVGSGGAVAAVAVAVAGAAVVCYIYHSRRV,failed
20,MAEGKDRNFVTALARGLDVLRSFRPGEVLLTNTDLSERTGLPKPTVSRLTYTLCQLGYLVQDRQSGAYRLGVGVLQLGMGVLAGLDICDRAAEVLRGLRTGANPYITAALGEVHRAEVIYVAVSRSRENVSLSMHVGSRLPLFRSAIGRAILVGMEAEEREAAIAAGMRDLGVPEAELRSQIARAVEEYAVRGYCTGYGDWRADVNGIAVPVLSLGGARLHGLNLGGPSFHVTQEELERVFAPLLIEAGRSLGMVP,failed
21,MAEICLITGTPGSGKTLKMVSMMANDEMFKPDENGIRRKVFTNIKGLKIPHTYIETDAKKLPKSTDEQLSAHDMYEWIKKPENIGSIVIVDEAQDVWPARSAGSKIPENVQWLNTHRHQGIDIFVLTQGPKLLDQNLRTLVRKHYHIASNKMGMRTLLEWKICADDPVKMASSAFSSIYTLDKKVYDLYESAEVHT,not failed
